Patent publication US20210369776A1 (published 2021)

T1: EBV LMP2 (latent membrane protein 2) peptide on HLA-A*02:01 (human)
T1 peptide: LLWTLVVLL

B1: L201 TCR (TCR, V domains shown)
Valpha: DQQVKQNSPSLSVQEGRISILNCDYTNSMFDYFLWYKKYPAEGPTFLISISSIKDKNEDGRFTVFLNKSAKHLSLHIVPSQPGDSAVYFCAAPPPSGNQFYFGTGTSLTVIP
Vbeta: DVKVTQSSRYLVKRTGEKVFLECVQDMDHENMFWYRQDPGLGLRLIYFSYDVKMKEKGDIPEGYSVSREKKERFSLILESASTNQTSMYLCASSTRLAGAQRDTQYFGPGTRLTVL
B2: L202 TCR (TCR, V domains shown)
Valpha: EDVEQSLFLSVREGDSSVINCTYTDSSSTYLYWYKQEPGAGLQLLTYIFSNMDMKQDQRLTVLLNKKDKHLSLRIADTQTGDSAIYFCAESIPSGYNKLIFGAGTRLAVHP
Vbeta: GVAQSPRYKIIEKRQSVAFWCNPISGHATLYWYQQILGQGPKLLIQFQNNGVVDDSQLPKDRFSAERLKGVDSTLKIQPAKLEDSAVYLCASSLGLAGEDTQYFGPGTRLTVL
B3: L203 TCR (TCR, V domains shown)
Valpha: DQQVKQNSPSLSVQEGRISILNCDYTNSMFDYFLWYKKYPAEGPTFLISISSIKDKNEDGRFTVFLNKSAKHLSLHIVPSQPGDSAVYFCAAKLPQAAGNKLTFGGGTRVLVKP
Vbeta: MVIQNPRYQVTQFGKPVTLSCSQTLNHNVMYWYQQKSSQAPKLLFHYYDKDFNNEADTPDNFQSRRPNTSFCFLDIRSPGLGDAAMYLCATSSSIAGDTRNNEQFFGPGTRLTVL

Columns and labels:
[1] = target: T1, EBV LMP2 (latent membrane protein 2) …; test: killing
[2] = target: T1, EBV LMP2 (latent membrane protein 2) …; test: cytokine release

Row | Binder | binding result [1] | binding result [2]
1 | B1 | recognises | –
2 | B2 | recognises | –
3 | B3 | – | recognises
